Source: doi:10.1101/327320

Tests used:
Assay in all cases: EMSA
Hrq1;Pif1 = Hrq1;Pif1 (Saccharomyces cerevisiae;Saccharomyces …, UniProt Q05549;P07271 1-1077;1-859, |)
Hrq1-K318A = target: T1, Hrq1-K318A (Saccharomyces cerevisiae, UniProt Q05549 1-1077, K318A)
T1 sequence: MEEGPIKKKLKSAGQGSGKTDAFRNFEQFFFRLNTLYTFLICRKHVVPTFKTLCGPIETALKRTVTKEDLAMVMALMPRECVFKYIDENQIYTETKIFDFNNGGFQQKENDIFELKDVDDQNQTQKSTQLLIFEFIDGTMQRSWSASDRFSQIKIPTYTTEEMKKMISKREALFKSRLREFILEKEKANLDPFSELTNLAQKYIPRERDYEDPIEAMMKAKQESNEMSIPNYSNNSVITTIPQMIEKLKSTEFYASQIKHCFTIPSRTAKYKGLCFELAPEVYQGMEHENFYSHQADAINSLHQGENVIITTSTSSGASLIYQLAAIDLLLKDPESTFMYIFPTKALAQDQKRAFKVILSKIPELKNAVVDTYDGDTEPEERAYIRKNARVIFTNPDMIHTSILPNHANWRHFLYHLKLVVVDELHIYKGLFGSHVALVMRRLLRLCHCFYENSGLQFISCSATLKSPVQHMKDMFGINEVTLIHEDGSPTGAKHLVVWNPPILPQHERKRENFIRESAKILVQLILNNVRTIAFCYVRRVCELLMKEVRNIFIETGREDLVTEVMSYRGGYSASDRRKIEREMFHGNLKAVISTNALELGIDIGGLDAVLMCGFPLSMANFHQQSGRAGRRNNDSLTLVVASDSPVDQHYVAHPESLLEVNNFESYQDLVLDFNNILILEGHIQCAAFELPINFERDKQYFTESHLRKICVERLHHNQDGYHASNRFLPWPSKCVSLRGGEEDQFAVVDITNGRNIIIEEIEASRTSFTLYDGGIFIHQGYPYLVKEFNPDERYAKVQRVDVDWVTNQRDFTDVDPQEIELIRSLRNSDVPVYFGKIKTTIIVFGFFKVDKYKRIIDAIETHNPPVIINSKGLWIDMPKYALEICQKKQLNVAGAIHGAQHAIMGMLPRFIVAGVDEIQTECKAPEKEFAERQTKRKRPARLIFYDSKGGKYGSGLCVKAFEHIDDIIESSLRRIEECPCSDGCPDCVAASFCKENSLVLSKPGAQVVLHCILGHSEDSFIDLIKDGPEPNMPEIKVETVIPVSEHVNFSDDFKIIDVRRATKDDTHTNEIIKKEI

Hrq1 = target: T2, Hrq1 (Saccharomyces cerevisiae, UniProt Q05549 1-1077)
T2 sequence: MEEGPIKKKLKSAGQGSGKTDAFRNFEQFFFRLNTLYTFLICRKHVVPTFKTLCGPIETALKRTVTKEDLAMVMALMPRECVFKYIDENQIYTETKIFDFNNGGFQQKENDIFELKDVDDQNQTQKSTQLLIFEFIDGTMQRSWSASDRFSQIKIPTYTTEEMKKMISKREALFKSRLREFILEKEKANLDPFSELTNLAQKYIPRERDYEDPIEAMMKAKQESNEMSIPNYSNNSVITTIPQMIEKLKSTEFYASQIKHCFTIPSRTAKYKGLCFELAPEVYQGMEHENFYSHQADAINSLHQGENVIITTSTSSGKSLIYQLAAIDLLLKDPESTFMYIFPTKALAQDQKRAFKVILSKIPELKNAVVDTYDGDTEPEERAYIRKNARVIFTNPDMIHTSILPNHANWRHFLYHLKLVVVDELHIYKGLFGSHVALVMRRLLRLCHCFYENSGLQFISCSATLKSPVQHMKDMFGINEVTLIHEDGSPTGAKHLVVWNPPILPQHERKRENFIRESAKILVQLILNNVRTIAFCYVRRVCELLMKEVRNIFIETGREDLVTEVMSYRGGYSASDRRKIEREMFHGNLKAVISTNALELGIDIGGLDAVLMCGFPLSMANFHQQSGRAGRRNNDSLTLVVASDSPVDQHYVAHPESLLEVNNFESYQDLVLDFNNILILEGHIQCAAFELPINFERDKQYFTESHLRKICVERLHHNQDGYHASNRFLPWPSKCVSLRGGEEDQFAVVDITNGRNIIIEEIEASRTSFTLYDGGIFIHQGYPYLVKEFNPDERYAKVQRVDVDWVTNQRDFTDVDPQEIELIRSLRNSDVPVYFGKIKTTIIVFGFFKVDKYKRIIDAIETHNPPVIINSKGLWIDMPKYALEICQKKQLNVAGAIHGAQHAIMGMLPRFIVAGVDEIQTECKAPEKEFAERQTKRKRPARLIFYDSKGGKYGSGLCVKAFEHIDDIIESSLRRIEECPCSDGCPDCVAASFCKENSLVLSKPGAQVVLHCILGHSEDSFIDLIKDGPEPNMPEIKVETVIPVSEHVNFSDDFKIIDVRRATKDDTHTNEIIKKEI

Pif1 = target: T3, Pif1 (Saccharomyces cerevisiae, UniProt P07271 1-859)
T3 sequence: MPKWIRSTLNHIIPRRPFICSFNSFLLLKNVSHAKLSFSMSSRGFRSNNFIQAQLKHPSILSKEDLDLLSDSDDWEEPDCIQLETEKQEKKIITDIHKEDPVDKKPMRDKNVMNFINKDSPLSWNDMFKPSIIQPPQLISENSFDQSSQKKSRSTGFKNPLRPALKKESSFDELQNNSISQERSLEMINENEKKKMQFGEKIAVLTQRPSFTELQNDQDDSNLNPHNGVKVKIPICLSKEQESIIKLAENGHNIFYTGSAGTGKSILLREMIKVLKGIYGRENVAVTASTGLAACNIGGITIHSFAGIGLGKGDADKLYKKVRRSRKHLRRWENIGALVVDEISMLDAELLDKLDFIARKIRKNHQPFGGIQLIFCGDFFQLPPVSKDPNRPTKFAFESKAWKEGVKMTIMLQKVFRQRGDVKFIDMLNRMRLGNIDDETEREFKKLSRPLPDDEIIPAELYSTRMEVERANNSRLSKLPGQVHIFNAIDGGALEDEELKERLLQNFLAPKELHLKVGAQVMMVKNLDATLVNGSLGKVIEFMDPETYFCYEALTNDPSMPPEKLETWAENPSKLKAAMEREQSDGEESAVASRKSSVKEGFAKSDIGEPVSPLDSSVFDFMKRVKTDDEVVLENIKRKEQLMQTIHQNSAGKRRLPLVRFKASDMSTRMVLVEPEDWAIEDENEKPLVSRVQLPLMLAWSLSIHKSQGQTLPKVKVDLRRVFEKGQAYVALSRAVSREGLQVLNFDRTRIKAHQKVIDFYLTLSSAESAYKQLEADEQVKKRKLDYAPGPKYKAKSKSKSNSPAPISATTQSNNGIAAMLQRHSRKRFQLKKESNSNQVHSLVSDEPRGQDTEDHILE

Pif1-K264A = target: T4, Pif1-K264A (Saccharomyces cerevisiae, UniProt P07271 1-859, K264A)
T4 sequence: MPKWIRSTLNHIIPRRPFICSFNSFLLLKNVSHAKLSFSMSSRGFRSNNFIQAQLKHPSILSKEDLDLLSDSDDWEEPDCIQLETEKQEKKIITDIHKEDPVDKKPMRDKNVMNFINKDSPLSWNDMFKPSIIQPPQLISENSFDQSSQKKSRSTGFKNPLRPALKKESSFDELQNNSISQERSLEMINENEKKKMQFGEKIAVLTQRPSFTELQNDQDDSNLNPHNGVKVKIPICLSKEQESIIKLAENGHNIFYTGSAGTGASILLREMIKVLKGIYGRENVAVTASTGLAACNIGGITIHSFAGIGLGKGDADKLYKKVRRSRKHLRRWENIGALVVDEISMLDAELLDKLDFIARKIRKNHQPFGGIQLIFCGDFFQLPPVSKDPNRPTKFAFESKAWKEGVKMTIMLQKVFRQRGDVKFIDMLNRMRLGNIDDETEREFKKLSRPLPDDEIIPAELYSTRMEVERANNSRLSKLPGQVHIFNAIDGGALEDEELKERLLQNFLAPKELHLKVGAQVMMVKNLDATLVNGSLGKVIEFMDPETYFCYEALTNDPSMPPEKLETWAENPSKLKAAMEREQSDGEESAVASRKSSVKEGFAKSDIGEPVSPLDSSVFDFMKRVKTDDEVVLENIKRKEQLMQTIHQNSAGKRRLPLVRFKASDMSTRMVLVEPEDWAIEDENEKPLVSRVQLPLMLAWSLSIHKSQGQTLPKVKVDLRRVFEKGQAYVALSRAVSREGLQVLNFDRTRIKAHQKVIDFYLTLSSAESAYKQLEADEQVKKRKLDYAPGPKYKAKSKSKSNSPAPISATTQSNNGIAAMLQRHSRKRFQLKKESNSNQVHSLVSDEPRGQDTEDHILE

B1: Tel50 (ssDNA)
DNA: GTGTGGGTGTGGTGTGGGTGTGGTGTGGGTGTGTGGTGTGGTGTGTGTGG
Hrq1;Pif1
  binding result: binds

B2: Tel30 (ssDNA)
DNA: CGCCATGCTGATCCGTGTGGTGTGTGTGGG
Hrq1-K318A
  Kd: 105 nM
Hrq1
  Kd: 16.1 nM
Pif1
  Kd: 33.5 nM
Pif1-K264A
  Kd: 41.2 nM

B3: MB1429 poly(dT) 25 nt with 3' inverted dT (ssDNA)
DNA: TTTTTTTTTTTTTTTTTTTTTTTTT
modifications: 3'-terminal T25 is inverted dT (3'-3' linkage, two 5' ends, no free 3' end)
Hrq1
  Kd: ~35 nM

B4: MB463 poly(dT) 25 nt (ssDNA)
DNA: TTTTTTTTTTTTTTTTTTTTTTTTT
Hrq1
  Kd: ~35 nM

B5: Tel15 (ssDNA)
DNA: TGTGGTGTGTGTGGG
Pif1
  binding result: binds
Pif1-K264A
  binding result: binds
